Measurements taken from patent US20060104978A1, “Methods and compositions for PDGF-C activation and inhibition” (LUDWIG INSTITUTE FOR CANCER RESEARCH, priority 2003, published 2006).

B1: α2-anti-plasmin: specific plasmin inhibitor (#4030, American Diagnostica Inc.) (protein, UniProt P08697 40-491, looked up)
Alpha-2-antiplasmin: NQEQVSPLTLLKLGNQEPGGQTALKSPPGVCSRDPTPEQTHRLARAMMAFTADLFSLVAQTSTCPNLILSPLSVALALSHLALGAQNHTLQRLQQVLHAGSGPCLPHLLSRLCQDLGPGAFRLAARMYLQKGFPIKEDFLEQSEQLFGAKPVSLTGKQEDDLANINQWVKEATEGKIQEFLSGLPEDTVLLLLNAIHFQGFWRNKFDPSLTQRDSFHLDEQFTVPVEMMQARTYPLRWFLLEQPEIQVAHFPFKNNMSFVVLVPTHFEWNVSQVLANLSWDTLHPPLVWERPTKVRLPKLYLKHQMDLVATLSQLGLQELFQAPDLRGISEQSLVVSGVQHQSTLELSEVGVEAAAATSIAMSRMSLSSFSVNRPFLFFIFEDTTGLPLFVGSVRNPNPSAPRELKEQQDSPGNKDFLQSLKGFPRGDKLFGPDLKLVPPMEEDYPQFGSPK
B2: PDCUBPC: chimeric PDGF-C carrying the CUB domain from PDGF-D and the hinge region and growth factor domain of PDGF-C (protein)
chain: RDTSATPQSASIKALRNANLRRDESNHLTDLYRRDETIQVKGNGYVQSPRFPNSYPRNLLLTWRLHSQENTRIQLVFDNQFGLEEAENDICRYDFVEVEDISETSTIIRGRWCGHKEVPPRIKSRTNQIKITFKSDDYFVAKPGFKIYYSLLEDQFTEAVSPSVLPPSALPLDLLNNAITAFSTLEDLIRYLEPERWQLDLEDLYRPTWQLLGKAFVFGRKSRVVDLNLLTEEVRLYSCTPRNFSVSIREELKRTDTIFWPGCLLVKRCGGNCACCLHNCNECQCVPSKVTKKYHEVLQLRPKTGVRGLHKSLTDVALEHHEECDCVCRGSTGG

Columns and labels:
latent PDGF-CC = target: T1, latent PDGF-CC (Homo sapiens, UniProt Q9NRA1); test: Cotransfection assay in COS-1 cells: protease plus full-length PDGF-C; type: cell-based; conditions: α2-anti-plasmin 10 ng-1 μg added to the cotransfection medium for 24 hours
T1 construct: cotransfected with full-length PDGF-C (Li et al, 2000), full-length PDGF-D (Bergsten et al, 2001); expressed in transfected cells; host or cells: COS-1 cells
T1 sequence (Q9NRA1 23-345): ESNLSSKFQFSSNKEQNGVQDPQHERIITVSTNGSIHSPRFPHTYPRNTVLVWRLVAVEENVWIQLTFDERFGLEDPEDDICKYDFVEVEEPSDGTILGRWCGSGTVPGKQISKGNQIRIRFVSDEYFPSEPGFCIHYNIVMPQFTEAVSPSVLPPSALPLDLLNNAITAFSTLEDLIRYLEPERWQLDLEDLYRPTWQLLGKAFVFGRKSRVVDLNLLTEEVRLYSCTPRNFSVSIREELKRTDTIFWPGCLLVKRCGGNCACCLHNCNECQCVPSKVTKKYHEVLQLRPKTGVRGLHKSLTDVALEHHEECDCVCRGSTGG
Excerpt: A cotransfection assay was established to identify serine proteases able to cleave and activate latent PDGF-CC. Expression plasmids encoding the relevant enzymes and full-length PDGF-C were cotransfected into COS-1 cells, and aliquots of the conditioned media from the transfectants were subjected to SDS-PAGE and immunoblotting using antibodies to the growth factor domain of PDGF-C. […] As a specificity control, the ability of tPA and NT to use full-length PDGF-DD as the substrate in the cotransfection assay was analysed. […] One difference in the latter results, as compared with the results from the cotransfection assay, was that purified tPA generated a second intermediate species of 32 kDa using latent PDGF-CC as the substrate. It is possible that this intermediate is the result of digestion by plasmin contamination in the tPA preparation, since the size of the fragment is similar to that of plasmincleaved PDGF-CC previously reported (Li et al, 2000). […]
To test the endogenous expression of PDGF-CC, subconfluent AG1523 cells and primary fibroblast cultures were cultured in serum-free DMEM overnight. […] In the case of the primary cultures, total protein concentration was measured and normalized (Bradford, 1976). […]

tPA = test: Cotransfection assay in COS-1 cells: PDGF-CC forms and mutants coexpressed with tPA; type: cell-based, human; conditions: COS-1 cotransfection with tPA, immunoblot; cleavage site mutant made from mouse PDGF-C cDNA
tPA, sequence (P00750 36-562): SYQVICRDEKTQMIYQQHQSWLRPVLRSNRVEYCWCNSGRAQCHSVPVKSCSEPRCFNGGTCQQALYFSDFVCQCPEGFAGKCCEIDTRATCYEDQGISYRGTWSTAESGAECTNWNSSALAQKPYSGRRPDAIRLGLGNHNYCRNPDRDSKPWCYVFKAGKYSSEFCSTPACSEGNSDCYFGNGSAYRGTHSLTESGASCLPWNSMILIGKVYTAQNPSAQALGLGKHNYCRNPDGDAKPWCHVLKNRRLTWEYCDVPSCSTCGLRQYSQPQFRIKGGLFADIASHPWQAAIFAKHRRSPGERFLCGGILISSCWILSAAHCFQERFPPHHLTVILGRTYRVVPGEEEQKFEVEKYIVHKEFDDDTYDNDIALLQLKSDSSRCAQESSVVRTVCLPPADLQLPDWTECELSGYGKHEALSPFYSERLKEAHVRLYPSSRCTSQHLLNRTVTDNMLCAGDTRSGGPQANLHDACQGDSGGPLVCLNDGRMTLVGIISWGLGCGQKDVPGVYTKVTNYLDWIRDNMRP
Excerpt: The structural requirements for recognition of full-length PDGF-CC as a substrate for tPA were mapped by analysis of several mutated forms of PDGF-CC using the co-transfection assay. The mutants of PDGF-CC included a chimeric form of PDGF-C carrying the CUB domain from PDGF-D and the hinge region and growth factor domain of PDGF-C (mutant PDCUBPC), and several truncation mutants lacking the CUB domain and increasing parts of the hinge region (schematically illustratrated in FIG. 6A). All mutants were properly expressed in transfected COS-1 cells, formed disulfide-linked dimers (data not shown), and were efficiently secreted, except truncation mutant Δ190 that was expressed at a lower level in the conditioned medium (FIG. 6B).
A conserved site of four amino acids containing three basic amino-acid residues (amino-acid residues -R-K-S-R-) was previously identified as a potential site for proteolytic activation of latent PDGF-CC (Li et al, 2000). […]
To test the endogenous expression of PDGF-CC, subconfluent AG1523 cells and primary fibroblast cultures were cultured in serum-free DMEM overnight. […] In the case of the primary cultures, total protein concentration was measured and normalized (Bradford, 1976). […] PDGF-C and PDGF-D were detected by immunoblotting using affinity-purified polyclonal rabbit antibodies against PDGF-C (Li et al, 2000) and PDGF-D (Bergsten et al, 2001), respectively. […]

Molecule	effect on release of core PDGF-C by tPA (latent PDGF-CC)	cleavage of the PDGF-CC form by coexpressed tPA (tPA)
B1	had no effect on the release of core PDGF-C by tPA	–
B2	–	neither chimeric PDCUBPC, nor the truncation mutants lacking the CUB domain, were efficiently cleaved
